B1: His-tagged ASH domain of OCRL (536aa-678aa) (domain or fragment)
chain: not shown
B2: GFP-tagged, full-length OCRL (natural protein)
chain: not shown
B3: His-tagged ASH/RhoGAP domain of OCRL (536aa-901aa) (domain or fragment)
chain: not shown

Tests used:
[1] = molecular target: T1, GST-SdhA-CBM2 (1029-1260aa) (Legionella pneumophila, UniProt Q6RCQ3 1029-1260); test: ELISA
[2] = molecular target: T1, GST-SdhA-CBM2 (1029-1260aa); test: pull-down

Row | Binder | binding result [1] | fold pull-down above the GST control [2] [fold]
1 | B1 | binds | 
2 | B2 |  | ~47
3 | B3 | binds | 

— article PMC8669613 (Cell reports, 2021)
